Source: patent US20250320480A1, “Immunoglobulin Cleaving Enzyme” (priority 2021, published 2025)
Entries after “also recorded” stand apart in the source; their conditions may differ. Non-standard residues stand in square brackets, D forms with d. Residues, ends and D or L forms follow the SMILES beside them. *: point of attachment. Sta = CC(C)C[C@H](N)[C@@H](O)CC(=O)O; Isovaleryl = CC(C)CC(=O)*

Key:
[1] = system: casein; experiment: General protease activity, EnzChek protease assay; assay type: biochemical; details: casein substrate; FabULOUS 5 μg, FabRICATOR 10 μg, IdeSORK2.0 10 μg
Protocol: FIG. 2. General protease activity. General protease activity was measured with the EnzCHECK protease assay, using casein as a substrate.
General protease activity was determined using the EnzChek Protease Assay kit, according to manufacturer's instructions. As a positive control the general protease FabULOUS (SpeB, 5 μg) was used, and as a negative control the IgG-specific protease FabRICATOR (IdeS, 10 μg). IdeSORK2.0 was added to a total quantity of 10 μg.

[2] = system: IdeSork2.0; experiment: Protease inhibitor assay; assay type: biochemical, Streptococcus krösus; details: IgG1 pre-incubated with inhibitor, IdeSork2.0 1:5, overnight at 37° C., SDS-PAGE
Protocol: FIG. 4. Protease inhibitor sensitivity of IdeSork2.0.
IgG1 (trastuzumab) was pre-incubated with a set of protease inhibitors (G-Biosciences) before addition of IdeSork2.0 (of SEQ ID NO: 3) (1:5), and the mixture was allowed to incubate overnight at 37° C. before analysis on SDS-PAGE.

[3] = biological target: human IgG2
[4] = biological target: human IgG1
[5] = system: IgG in human serum; experiment: Activity of IgG hydrolases in human serum; assay type: biochemical; details: serum (100%), E:S 1:40, 0-4 hours at 37° C., non-reduced SDS-PAGE
Protocol: FIG. 15. Activity of IgG hydrolases in human serum. Serum (100%) was spiked with IgG hydrolases and activity was analyzed over time using non-reduced SDS-PAGE.
For serum activity assays, an E: S ratio of 1:40 (assuming 10 mg/mL IgG in serum) was used, incubating 0-4 hours at 37° C. before analysis on a non-reduced SDS-PAGE. All enzymes were supplied by Genovis AB.

[6] = system: IgG2; experiment: Comparison to other IgG proteases: IgG2; assay type: biochemical; details: SDS-PAGE
Protocol: (§1) FIG. 10. IdeSork2.0 is having a similar activity compared to IdeS and IdeZ. To investigate if IdeSork2.0 is hydrolyzing IgG in a similar way as IdeS and IdeZ they were all incubated against IgG1 and IgG2 and analyzed on SDS-PAGE. The cleavage patterns look identical, with both IdeSork2.0 and IdeS having less activity towards IgG2.
(§2) To further look into the activity of IdeSORK2.0, its activity was compared with IdeS and IdeZ against both IgG1 and IgG2.

[7] = system: IgG1; experiment: Comparison to other IgG proteases: IgG1; assay type: biochemical; details: SDS-PAGE
Protocol: as §1, §2

[8] = system: human IgG; details: in particular when cleaving IgG2; cited from earlier work
[9] = biological target: guinea pig IgG
[10] = biological target: dog IgG
[11] = biological target: mouse IgG2b
[12] = biological target: IVIG
[13] = biological target: rat IgG
[14] = biological target: sheep IgG
[15] = biological target: porcine IgG
[16] = biological target: denatured and reduced IgG
[17] = biological target: cow IgG
[18] = biological target: IgG
[19] = biological target: monoclonal IgG4
[20] = biological target: mouse IgG2a
[21] = biological target: human IgA
[22] = biological target: horse IgG
[23] = biological target: mouse IgG1

## FabULOUS: general protease (SpeB), positive control [reference compound]
[1]
  General protease activity (signal): high signal

## CC(C)C[C@H](NC(=O)[C@@H](O)[C@H](N)Cc1ccccc1)C(=O)O [Bestatin]
[2]
  Inhibition of IdeSork2.0 hydrolysis of IgG1 (trastuzumab): only partly inhibitory

## O=C(O)CN(CCN(CC(=O)O)CC(=O)O)CC(=O)O [EDTA]
[2]
  Inhibition of IdeSork2.0 hydrolysis of IgG1 (trastuzumab): unaffected; also recorded: besides aprotinin, EDTA, and pepstatin

## aprotinin
[2]
  Inhibition of IdeSork2.0 hydrolysis of IgG1 (trastuzumab): besides aprotinin, EDTA, and pepstatin

## CC(C)CC(=O)N[C@H](C(=O)N[C@H](C(=O)N[C@@H](CC(C)C)[C@@H](O)CC(=O)N[C@@H](C)C(=O)N[C@@H](CC(C)C)[C@@H](O)CC(=O)O)C(C)C)C(C)C [pepstatin] (Isovaleryl-VV[Sta]A[Sta]-OH)
[2]
  Inhibition of IdeSork2.0 hydrolysis of IgG1 (trastuzumab): besides aprotinin, EDTA, and pepstatin

B1: IdeS (Immunoglobulin G-degrading enzyme of S. pyogenes) (protein)
chain: DSFSANQEIRYSEVTPYHVTSVWTKGVTPPANFTQGEDVFHAPYVANQGWYDITKTFNGKDDLLCGAATAGNMLHWWFDQNKDQIKRYLEEHPEKQKINFNGEQMFDVKEAIDTKNHQLDSKLFEYFKEKAFPYLSTKHLGVFPDHVIDMFINGYRLSLTNHGPTPVKEGSKDPRGGIFDAVFTRGDQSKLLTSRHDFKEKNLKEISDLIKKELTEGKALGLSHTYANVRINHVINLWGADFDSNGNLKAIYVTDSDSNASIGMKKYFVGVNSAGKVAISAKEIKEDNIGAQVLGLFTLSTGQDSWNQTN
[3]
  hydrolysis of IgG, SDS-PAGE: All enzymes were able to hydrolyze the antibodies in seemingly an identical fashion, though slightly different efficiently
[4]
  hydrolysis of IgG, SDS-PAGE: All enzymes were able to hydrolyze the antibodies in seemingly an identical fashion, though slightly different efficiently

B2: IdeS: Immunoglobulin G-degrading enzyme of S. pyogenes, IgG-specific cysteine protease (protein)
chain: B1 chain
[5]
  Immunoglobulin cleavage activity in the presence of human serum: immunoglobulin cleavage activity
[1]
  General protease activity (signal): almost no signal
[6]
  Hydrolysis of IgG2: able to hydrolyze; also recorded: less activity
[7]
  Hydrolysis of IgG1: able to hydrolyze

B3: IdeZ (protein)
chain: DDYQRNATEAYAKEVPHQITSVWTKGVTPLTPEQFRYNNEDVIHAPYLAHQGWYDITKAFDGKDNLLCGAATAGNMLHWWFDQNKTEIEAYLSKHPEKQKIIFNNQELFDLKAAIDTKDSQTNSQLFNYFRDKAFPNLSARQLGVMPDLVLDMFINGYYLNVFKTQSTDVNRPYQDKDKRGGIFDAVFTRGDQTTLLTARHDLKNKGLNDISTIIKQELTEGRALALSHTYANVSISHVINLWGADFNAEGNLEAIYVTDSDANASIGMKKYFVGINAHGHVAISAKKIEGENIGAQVLGLFTLSSGKDIWQKLS
[3]
  hydrolysis of IgG, SDS-PAGE: All enzymes were able to hydrolyze the antibodies in seemingly an identical fashion, though slightly different efficiently
[4]
  hydrolysis of IgG, SDS-PAGE: All enzymes were able to hydrolyze the antibodies in seemingly an identical fashion, though slightly different efficiently

B4: IdeZ: IgG cysteine protease produced by Streptococcus equi ssp. zooepidemicus (protein)
chain: B3 chain
[5]
  Immunoglobulin cleavage activity in the presence of human serum: immunoglobulin cleavage activity
[6]
  Hydrolysis of IgG2: able to hydrolyze
[8]
  IgG cysteine protease activity against human IgG: considerably lower than that of IdeS
[7]
  Hydrolysis of IgG1: able to hydrolyze

B5: IdeSORK2.0 (protein)
chain: MSKRKLLKKIEKKDTSSVLTQKKQTKTLWADGVQVDDKDFKPSTENFGTNYLAAEYGIGKGYYDINKKFDGTDDDLCSGVVAANQLHWWLDRNKDYIEKYRQQSKDNGVTIGNTDIFELNKLHDEDQSNFFDFIKKSFGNKFLQPERLLNMYINGYGYLTSQDKAKTSQPSPSKLNFFQKVFKNNLLTDKTPINDIDEFSSQTKNALQNHKVLAVSFASIKNRGLGHVVTVWGADFDENGKVVALYVTDSDDRSKNIGNAKLGMKKLRIEVSAQDSSTIKLTGFEDKNSGGSLRHLYSLSTGEQIWKKYFEETHHHHHH
[9]
  hydrolysis of IgG, SDS-PAGE: only showed activity against horse and guinea pig IgG
[10]
  hydrolysis of IgG, SDS-PAGE: only showed activity against horse and guinea pig IgG (no activity on dog IgG)
[11]
  hydrolysis of IgG, SDS-PAGE: but not mIgG1 or mIgG2b
[12]
  hydrolysis of IgG: Incubation with polyclonal IgG (e.g. IVIG) resulted in near complete hydrolysis
[13]
  hydrolysis of IgG, SDS-PAGE: only showed activity against horse and guinea pig IgG (no activity on rat IgG)
[14]
  hydrolysis of IgG, SDS-PAGE: only showed activity against horse and guinea pig IgG (no activity on sheep IgG)
[15]
  hydrolysis of IgG, SDS-PAGE: only showed activity against horse and guinea pig IgG (no activity on porcine IgG)
[16]
  hydrolysis of IgG, SDS-PAGE: IdeSORK2.0 is not active against denatured and reduced IgG
[17]
  hydrolysis of IgG, SDS-PAGE: only showed activity against horse and guinea pig IgG (no activity on cow IgG)
[18]
  percentage hydrolysis of IgG: A ratio of 1:40 hydrolyzes >95% of IgG in 30-60 minutes
[19]
  hydrolysis of IgG, SDS-PAGE: can also hydrolyze monoclonal IgG4
[20]
  hydrolysis of IgG, SDS-PAGE: the protease is active against mIgG2a
[21]
  hydrolysis, SDS-PAGE: IdeSORK2.0 is not active towards IgA
[22]
  hydrolysis of IgG, SDS-PAGE: only showed activity against horse and guinea pig IgG
[23]
  hydrolysis of IgG, SDS-PAGE: but not mIgG1 or mIgG2b
